T1: MTDH (364-582) (Homo sapiens, UniProt Q86UE4)
T1 construct: made in house; host or cells: E. coli DH5α
T1 sequence (Q86UE4 364-582): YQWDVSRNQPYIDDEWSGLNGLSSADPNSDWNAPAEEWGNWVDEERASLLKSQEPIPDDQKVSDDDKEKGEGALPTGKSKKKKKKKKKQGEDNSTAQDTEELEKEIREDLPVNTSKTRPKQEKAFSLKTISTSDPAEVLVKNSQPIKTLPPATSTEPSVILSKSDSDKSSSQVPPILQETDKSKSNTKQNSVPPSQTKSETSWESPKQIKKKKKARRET

T2: Myc-MTDH (Homo sapiens, UniProt Q86UE4, A78S/T317A)
T2 construct: Full-length HA-tagged SND1 was co-expressed with full-length Myc-tagged wild-type (WT) or mutant MTDH in HEK293T cells; expressed in transfected cells; host or cells: HEK293T
T2 sequence (Q86UE4 1-582 A78S/T317A): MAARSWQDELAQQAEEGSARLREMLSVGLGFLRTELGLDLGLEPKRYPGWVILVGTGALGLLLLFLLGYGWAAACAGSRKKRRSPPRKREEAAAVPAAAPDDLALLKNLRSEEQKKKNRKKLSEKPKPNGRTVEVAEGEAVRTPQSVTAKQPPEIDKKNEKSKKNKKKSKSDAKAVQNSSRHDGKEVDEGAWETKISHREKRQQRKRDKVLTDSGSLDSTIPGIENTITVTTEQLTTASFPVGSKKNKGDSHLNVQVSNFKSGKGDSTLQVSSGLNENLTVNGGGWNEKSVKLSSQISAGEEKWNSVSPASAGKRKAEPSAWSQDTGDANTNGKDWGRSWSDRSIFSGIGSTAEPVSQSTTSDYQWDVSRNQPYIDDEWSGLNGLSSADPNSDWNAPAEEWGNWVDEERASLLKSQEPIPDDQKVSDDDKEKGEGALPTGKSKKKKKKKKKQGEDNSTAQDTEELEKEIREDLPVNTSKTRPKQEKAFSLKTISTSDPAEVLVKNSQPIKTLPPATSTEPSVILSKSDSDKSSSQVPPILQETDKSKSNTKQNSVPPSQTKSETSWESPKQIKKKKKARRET


Legend:
[1] = target: T1, MTDH (364-582); test: GST-mediated pull-down of SND1 constructs and mutants by GST-tagged MTDH (364-582); type: binding; settings: SND1 mutants in SND1 (16-339)
From the text: (§1) (FIG. 22A) In vitro pull-down of SND1 (16-339) by GST-tagged MTDH (364-582) harboring WT or mutant sequence. The proteins bound to GS4B were examined on SDS-PAGE and visualized by Coomassie blue staining. (FIG. 22B) In vitro pull-down of WT and mutant SND1 (16-339) by GST-tagged MTDH (364-582). The bound proteins were examined as in (FIG. 22A). For both (FIG. 22A) and (FIG. 22B), experiments were repeated three times; representative results are shown. The normalized percentage of binding was averaged from three experiments; mean±SEM was shown below the data. (FIG. 22C) HEK293T cells were transfected with human HA-SND1, WT Myc-MTDH or Myc-MTDH with indicated single point mutation. Lysates were immunoprecipitated with anti-Myc antibody and immunoblotted with the indicated antibodies. (FIG. 22D) HEK293T cells were transfected with human Myc-MTDH, WT HA-SND1 or mutant HA-SND1 with indicated single point mutations or deletions. Lysates were immunoprecipitated with anti-Myc and immunoblotted with the indicated antibodies.
GST-Mediated Pull-Down Assay: ˜20 μg of GST-MTDH (different truncation forms and site mutants) was bound to 10 μl of glutathione resin via GST tag. The resin was washed with 200 μl assay buffer (25 mM Tris, PH8.0, 150 mM NaCl, 3 mM DTT) three times to remove the excess unbound protein. 15 μg of His-SND1 (16-339) was added to the resin in a 100 μl volume suspended in the assay buffer with 2 mg/ml of BSA. The mixture was washed with 200 μl assay buffer twice before examined by SDS-PAGE, and visualized by Coomassie blue staining. The experiments were repeated 3 times and the ratio of SND1 associated with GST-MTDH was analyzed by ImageJ.

[2] = target: T2, Myc-MTDH; test: Co-immunoprecipitation of HA-SND1 (WT or mutant) with Myc-MTDH in HEK293T cells; type: cell-based; settings: HEK293T cell lysates
From the text: as §1
Immunoprecipitation and western blot: For in vivo immunoprecipitation (IP) experiments, cultured cells were washed in cold PBS and lysed in lysis buffer (20 mM Tris pH 7.4, 0.15 M NaCl, 1 mM EDTA, 1 mM EGTA, 1% Tx-100, 0.0025 M Na2P2O7, 1 mM β-glycerolphosphate, 1 mM Na3VO4, and 1 mM NaF) with an EDTA-free protease inhibitor mixture (Roche Applied Science) and PMSF. Cell lysates were then incubated on ice for 10 min, centrifuged, and precleared by incubating with protein A/G beads (Santa Cruz Biotechnology) for 1 h at 4° C. For IP bead preparation, 30 μl of protein A/G beads were incubated with 5 μg of antibodies for 2 h at 4° C. IPs were carried out for overnight at 4° C., and beads were centrifuged, washed and subsequently boiled for 5 min in SDS protein loading buffer to elute bound protein. IP lysates were subjected to western blotting with indicated antibodies.

Row | Molecule | MTDH-binding of SND1 domains and mutants, in vitro [1] | interaction of full-length HA-SND1 (WT or mutant) with Myc-MTDH [2]
1 | R324A: SND1 mutant R324A (protein, left off: small tags and cut ends) VPTVQRGIIKMVLSGCAIIVRGQPRGGPPPERQINLSNIRAGNLARRAAATQPDAKDTPDEPWAFPAREFLRKKLIGKEVCFTIENKTPQGREYGMIYLGKDTNGENIAESLVAEGLATRREGMRANNPEQNRLSECEEQAKAAKKGMWSEGNGSHTIRDLKYTIENPRHFVDSHHQKPVNAIIEHVRDGSVVRALLLPDYYLVTVMLSGIKCPTFRREADGSETPEPFAAEAKFFTESRLLQRDVQIILESCHNQNILGTILHPNGNITELLLKEGFARCVDWSIAVYTRGAEKLRAAERFAKERRLAIWRDYVAPTANLDQK | barely affected MTDH-binding | –
2 | R255E: SND1 mutant R255E (protein, listed as Homo sapiens) MASSAQSGGSSGGPAVPTVQRGIIKMVLSGCAIIVRGQPRGGPPPERQINLSNIRAGNLARRAAATQPDAKDTPDEPWAFPAREFLRKKLIGKEVCFTIENKTPQGREYGMIYLGKDTNGENIAESLVAEGLATRREGMRANNPEQNRLSECEEQAKAAKKGMWSEGNGSHTIRDLKYTIENPRHFVDSHHQKPVNAIIEHVRDGSVVRALLLPDYYLVTVMLSGIKCPTFRREADGSETPEPFAAEAKFFTESELLQRDVQIILESCHNQNILGTILHPNGNITELLLKEGFARCVDWSIAVYTRGAEKLRAAERFAKERRLRIWRDYVAPTANLDQKDKQFVAKVMQVLNADAIVVKLNSGDYKTIHLSSIRPPRLEGENTQDKNKKLRPLYDIPYMFEAREFLRKKLIGKKVNVTVDYIRPASPATETVPAFSERTCATVTIGGINIAEALVSKGLATVIRYRQDDDQRSSHYDELLAAEARAIKNGKGLHSKKEVPIHRVADISGDTQKAKQFLPFLQRAGRSEAVVEYVFSGSRLKLYLPKETCLITFLLAGIECPRGARNLPGLVQEGEPFSEEATLFTKELVLQREVEVEVESMDKAGNFIGWLHIDGANLSVLLVEHALSKVHFTAERSSYYKSLLSAEEAAKQKKEKVWAHYEEQPVEEVMPVLEEKERSASYKPVFVTEITDDLHFYVQDVETGTQLEKLMENMRNDIASHPPVEGSYAPRRGEFCIAKFVDGEWYRARVEKVESPAKIHVFYIDYGNREVLPSTRLGTLSPAFSTRVLPAQATEYAFAFIQVPQDDDARTDAVDSVVRDIQNTQCLLNVEHLSAGCPHVTLQFADSKGDVGLGLVKEGLVMVEVRKEKQFQKVITEYLNAQESAKSARLNLWRYGDFRADDADEFGYSR | almost completely abolished MTDH-binding | nearly completely abolished MTDH-binding
3 | WT HA-SND1: full-length HA-tagged wild-type human SND1 (protein) MASSAQSGGSSGGPAVPTVQRGIIKMVLSGCAIIVRGQPRGGPPPERQINLSNIRAGNLARRAAATQPDAKDTPDEPWAFPAREFLRKKLIGKEVCFTIENKTPQGREYGMIYLGKDTNGENIAESLVAEGLATRREGMRANNPEQNRLSECEEQAKAAKKGMWSEGNGSHTIRDLKYTIENPRHFVDSHHQKPVNAIIEHVRDGSVVRALLLPDYYLVTVMLSGIKCPTFRREADGSETPEPFAAEAKFFTESRLLQRDVQIILESCHNQNILGTILHPNGNITELLLKEGFARCVDWSIAVYTRGAEKLRAAERFAKERRLRIWRDYVAPTANLDQKDKQFVAKVMQVLNADAIVVKLNSGDYKTIHLSSIRPPRLEGENTQDKNKKLRPLYDIPYMFEAREFLRKKLIGKKVNVTVDYIRPASPATETVPAFSERTCATVTIGGINIAEALVSKGLATVIRYRQDDDQRSSHYDELLAAEARAIKNGKGLHSKKEVPIHRVADISGDTQKAKQFLPFLQRAGRSEAVVEYVFSGSRLKLYLPKETCLITFLLAGIECPRGARNLPGLVQEGEPFSEEATLFTKELVLQREVEVEVESMDKAGNFIGWLHIDGANLSVLLVEHALSKVHFTAERSSYYKSLLSAEEAAKQKKEKVWAHYEEQPVEEVMPVLEEKERSASYKPVFVTEITDDLHFYVQDVETGTQLEKLMENMRNDIASHPPVEGSYAPRRGEFCIAKFVDGEWYRARVEKVESPAKIHVFYIDYGNREVLPSTRLGTLSPAFSTRVLPAQATEYAFAFIQVPQDDDARTDAVDSVVRDIQNTQCLLNVEHLSAGCPHVTLQFADSKGDVGLGLVKEGLVMVEVRKEKQFQKVITEYLNAQESAKSARLNLWRYGDFRADDADEFGYSR | – | bound readily with Myc-MTDH
4 | F250A: SND1 mutant F250A (protein, listed as Homo sapiens) MASSAQSGGSSGGPAVPTVQRGIIKMVLSGCAIIVRGQPRGGPPPERQINLSNIRAGNLARRAAATQPDAKDTPDEPWAFPAREFLRKKLIGKEVCFTIENKTPQGREYGMIYLGKDTNGENIAESLVAEGLATRREGMRANNPEQNRLSECEEQAKAAKKGMWSEGNGSHTIRDLKYTIENPRHFVDSHHQKPVNAIIEHVRDGSVVRALLLPDYYLVTVMLSGIKCPTFRREADGSETPEPFAAEAKAFTESRLLQRDVQIILESCHNQNILGTILHPNGNITELLLKEGFARCVDWSIAVYTRGAEKLRAAERFAKERRLRIWRDYVAPTANLDQKDKQFVAKVMQVLNADAIVVKLNSGDYKTIHLSSIRPPRLEGENTQDKNKKLRPLYDIPYMFEAREFLRKKLIGKKVNVTVDYIRPASPATETVPAFSERTCATVTIGGINIAEALVSKGLATVIRYRQDDDQRSSHYDELLAAEARAIKNGKGLHSKKEVPIHRVADISGDTQKAKQFLPFLQRAGRSEAVVEYVFSGSRLKLYLPKETCLITFLLAGIECPRGARNLPGLVQEGEPFSEEATLFTKELVLQREVEVEVESMDKAGNFIGWLHIDGANLSVLLVEHALSKVHFTAERSSYYKSLLSAEEAAKQKKEKVWAHYEEQPVEEVMPVLEEKERSASYKPVFVTEITDDLHFYVQDVETGTQLEKLMENMRNDIASHPPVEGSYAPRRGEFCIAKFVDGEWYRARVEKVESPAKIHVFYIDYGNREVLPSTRLGTLSPAFSTRVLPAQATEYAFAFIQVPQDDDARTDAVDSVVRDIQNTQCLLNVEHLSAGCPHVTLQFADSKGDVGLGLVKEGLVMVEVRKEKQFQKVITEYLNAQESAKSARLNLWRYGDFRADDADEFGYSR | almost completely abolished MTDH-binding | nearly completely abolished MTDH-binding
5 | SN3/4-TSN5 domains: SND1 C-terminal SN3/4-TSN5 domains, amino acids 340-885 of SEQ ID NO: 2 (protein, listed as Homo sapiens) DKQFVAKVMQVLNADAIVVKLNSGDYKTIHLSSIRPPRLEGENTQDKNKKLRPLYDIPYMFEAREFLRKKLIGKKVNVTVDYIRPASPATETVPAFSERTCATVTIGGINIAEALVSKGLATVIRYRQDDDQRSSHYDELLAAEARAIKNGKGLHSKKEVPIHRVADISGDTQKAKQFLPFLQRAGRSEAVVEYVFSGSRLKLYLPKETCLITFLLAGIECPRGARNLPGLVQEGEPFSEEATLFTKELVLQREVEVEVESMDKAGNFIGWLHIDGANLSVLLVEHALSKVHFTAERSSYYKSLLSAEEAAKQKKEKVWAHYEEQPVEEVMPVLEEKERSASYKPVFVTEITDDLHFYVQDVETGTQLEKLMENMRNDIASHPPVEGSYAPRRGEFCIAKFVDGEWYRARVEKVESPAKIHVFYIDYGNREVLPSTRLGTLSPAFSTRVLPAQATEYAFAFIQVPQDDDARTDAVDSVVRDIQNTQCLLNVEHLSAGCPHVTLQFADSKGDVGLGLVKEGLVMVEVRKEKQFQKVITEYLNAQESA | barely interact with MTDH | –
